First the molecules themselves.
B1: Parkinson disease protein 7 (Homo sapiens), Q99497 (parent)
chain: MASKRALVILAKGAEEMETVIPVDVMRRAGIKVTVAGLAGKDPVQCSRDVVICPDASLEDAKKEGPYDVVVLPGGNLGAQNLSESAAVKEILKEQENRKGLIAAICAGPTALLAHEIGFGSKVTTHPLAKDKMMNGGHYTYSENRVEKDGLILTSRGPGTSFEFALAIVEALNGKEVAAQVKAPLVLKD

Variants of B1 are the subject of this experiment. The following applies: with rack1_human RACK1, P63244.
Take MASKRALVILAKGAEEMETVIPVDVMRRAGIKVTVAGLAGKDPVQCSRDVVISPDASLEDAKKEGPYDVVVLPGGNLGAQNLSESAAVKEILKEQENRKGLIAAICAGPTALLAHEIGFGSKVTTHPLAKDKMMNGGHYTYSENRVEKDGLILTSRGPGTSFEFALAIVEALNGKEVAAQVKAPLVLKD [C53S]: the “effect of a mutation on the interaction” value was “decreasing interaction strength”.
With MASKRALVILAKGAEEMETVIPVDVMRRAGIKVTVAGLAGKDPVQSSRDVVICPDASLEDAKKEGPYDVVVLPGGNLGAQNLSESAAVKEILKEQENRKGLIAAICAGPTALLAHEIGFGSKVTTHPLAKDKMMNGGHYTYSENRVEKDGLILTSRGPGTSFEFALAIVEALNGKEVAAQVKAPLVLKD [C46S], the “effect of a mutation on the interaction” value is reported as “disrupting interaction strength”.
Consider MASKRALVILAKGAEEMETVIPVDVMRRAGIKVTVAGLAGKDPVQCSRDVVICPDASLEDAKKEGPYDVVVLPGGNLGAQNLSESAAVKEILKEQENRKGLIAAISAGPTALLAHEIGFGSKVTTHPLAKDKMMNGGHYTYSENRVEKDGLILTSRGPGTSFEFALAIVEALNGKEVAAQVKAPLVLKD [C106S], for which the “effect of a mutation on the interaction” value is on record as “disrupting interaction strength”.

The values above are taken from IntAct's records for PubMed 24947010.
